The record followed here is patent US6982170.

Data set [1] relates to human wild type FGF-1 (fibroblast growth factor-1).
Data set [2] relates to thrombin resistant mutant FGF-1R136K.
The target in data set [3] is human wild type FGF-1 (fibroblast growth factor-1) (human) (UniProt P05230). Kind of data set: cell-based or functional assay.

Consider thrombin, for which, in data set [1], the “degradation of FGF-1 on Western blot (bands at 17 kD and 14 kD), no heparin” value is on record as “wild-type FGF-1 was degraded by even the lowest concentration of thrombin used (0.5 U/ml)”. Further, in data set [2], the “degradation of FGF-1 on Western blot” value was “FGF-1R136K, even in the absence of heparin, was relatively resistant to thrombin degradation” and the “size of the cleavage band on Western blot” value is listed as “the band detected upon treatment of FGF-1R136K mutant is slightly larger than the degradation band from wild type FGF-1”.
With thrombin (enzyme), in data set [3], the BAEC growth (cell number after 3 days) with thrombin-pretreated growth factor was below 1 U/ml.
